Holding throughout (experiment): yeast two-hybrid (IACT), VP16 prey vs LexA bait, secondary screening
The target of one test is T1, LexA-Gcn5wt-HA.
T1 construct: Control bait without H3

The next test addresses T2, LexA-Gcn5mut-HA.
T2 construct: Control bait without H3

The target in test [1] is T3, LexA-HistoneH3-Gcn5mut-HA.
T3 construct: Control bait; H3 not acetylated; also called LexA-H3-Gcn5mut-HA

For a further test, the target named is T4, LexA-IN.
T4 construct: Non-acetylated Integrase bait; also called LexA-Integrase; IN-stop (non-acetylated)
T4 chain: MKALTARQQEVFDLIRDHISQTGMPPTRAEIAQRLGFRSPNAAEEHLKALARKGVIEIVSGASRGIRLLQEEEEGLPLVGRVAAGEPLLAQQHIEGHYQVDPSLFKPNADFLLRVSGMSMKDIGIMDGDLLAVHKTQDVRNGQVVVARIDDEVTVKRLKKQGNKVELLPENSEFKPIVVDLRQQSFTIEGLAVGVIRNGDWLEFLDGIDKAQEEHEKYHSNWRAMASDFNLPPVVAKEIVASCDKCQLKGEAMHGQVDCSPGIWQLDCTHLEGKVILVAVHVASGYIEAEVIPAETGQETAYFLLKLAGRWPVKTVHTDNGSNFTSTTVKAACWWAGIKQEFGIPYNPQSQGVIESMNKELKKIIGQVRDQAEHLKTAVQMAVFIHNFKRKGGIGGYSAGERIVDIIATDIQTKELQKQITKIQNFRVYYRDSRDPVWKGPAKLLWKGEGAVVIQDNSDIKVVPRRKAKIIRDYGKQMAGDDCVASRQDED

The next test addresses T5, LexA-Integrase-p300wt-HA (Integrase constitutively acetylated in cis by the fused p300 wt HAT; positions not stated).
T5 construct: Tethered catalysis bait expressed in L40 yeast from pMICBD1; also called IN-HATwt-HA; screening bait
T5 chain: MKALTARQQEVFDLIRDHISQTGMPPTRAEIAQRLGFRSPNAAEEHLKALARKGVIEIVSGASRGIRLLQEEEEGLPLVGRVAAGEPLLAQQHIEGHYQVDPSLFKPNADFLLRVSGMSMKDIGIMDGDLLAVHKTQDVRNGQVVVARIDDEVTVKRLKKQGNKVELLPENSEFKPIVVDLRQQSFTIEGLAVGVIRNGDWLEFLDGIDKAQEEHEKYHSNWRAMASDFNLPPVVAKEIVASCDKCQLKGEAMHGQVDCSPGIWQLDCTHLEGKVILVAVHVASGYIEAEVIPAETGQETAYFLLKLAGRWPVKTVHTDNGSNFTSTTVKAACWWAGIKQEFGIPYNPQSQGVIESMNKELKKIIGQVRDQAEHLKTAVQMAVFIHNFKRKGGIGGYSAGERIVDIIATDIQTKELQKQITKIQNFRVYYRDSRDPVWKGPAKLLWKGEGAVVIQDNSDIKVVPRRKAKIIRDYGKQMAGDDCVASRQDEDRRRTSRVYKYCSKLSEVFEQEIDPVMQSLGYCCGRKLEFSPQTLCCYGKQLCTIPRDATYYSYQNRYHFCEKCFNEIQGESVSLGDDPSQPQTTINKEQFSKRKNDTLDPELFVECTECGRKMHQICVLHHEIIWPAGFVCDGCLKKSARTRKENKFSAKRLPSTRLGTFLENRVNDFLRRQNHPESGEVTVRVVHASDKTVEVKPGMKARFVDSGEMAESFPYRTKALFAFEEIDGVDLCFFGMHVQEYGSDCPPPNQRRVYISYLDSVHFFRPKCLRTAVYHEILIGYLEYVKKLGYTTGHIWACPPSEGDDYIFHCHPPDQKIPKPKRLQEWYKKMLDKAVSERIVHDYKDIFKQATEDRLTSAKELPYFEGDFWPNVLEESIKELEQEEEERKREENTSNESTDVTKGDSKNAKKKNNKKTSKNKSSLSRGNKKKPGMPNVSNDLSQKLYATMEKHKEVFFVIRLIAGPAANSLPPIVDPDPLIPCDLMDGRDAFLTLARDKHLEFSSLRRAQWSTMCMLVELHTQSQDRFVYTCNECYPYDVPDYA

B1: ScFv-58F (scFv, not shown: large carriers)
scFv: DILMTQSPAIMSASPGEKVTMTCRASSSVSSSYLHWYQQKSGASPKLWIYSTSNLASGVPARFSGSGSGTSYSLTISSVEAEDAATYYCQQYSGYPWTSGGGTKLEIKRSGGSTSGSGKPGSGEGSSSTEVKVEESGGGLVQPGGSMKLSCVASGFTFSNYWMNWVRQSPEKGLEWVAEIRLKSNNYATHYAESVKGRFTISRDDSESSVYLQMNNLRAEDTGIYYCTRRNGPSSRAMDYWGQGTTVTVSS
notes: Yeast two-hybrid prey from mouse naive SPLINT ScFv library; also called ScFv-58 intrabody
With B1, the binding result (with LexA-Gcn5wt-HA; with LexA-Gcn5mut-HA; in test [1]) was “no binding” in each case.

B2: VH-12A (VHH, not shown: large carriers)
VHH: QVQLQQSGAELVKPGASVKLSCTASGFNIKDTYMHWVKQRPEQGLEWIGRIDPANGNTKYDPKFQGKATITADTSSNTAYLQLSSLTSEDTAVYYCASLLWWGQGTLVTVSA
notes: Single mouse VH domain split from ScFv-12A, as yeast two-hybrid prey; also called VH-12X
Turning to B2, the binding result in the test with LexA-IN and with LexA-Integrase-p300wt-HA was “binds” each time.

The record behind these values is patent US20190361013A1 (SCUOLA NORMALE SUPERIORE, published 2019).
